Test results from article PMC4330390 (Nucleic Acids Research, 2015).

B1: NXF1^ΔNΔUBA:NXT1 complex (complex, human)
chain 1: VRRDRAPPERGGAGTSQDGTSKNWFKITIPYGRKYDKAWLLSMIQSKCSVPFTPIEFHYENTRAQFFVEDASTASALKAVNYKILDRENRRISIIINSSAPPHTILNELKPEQVEQLKLIMSKRYDGSQQALDLKGLRSDPDLVAQNIDVVLNRRSCMAATLRIIEENIPELLSLNLSNNRLYRLDDMSSIVQKAPNLKILNLSGNELKSERELDKIKGLKLEELWLDGNSLCDTFRDQSTYISAIRERFPKLLRLDGHELPPPIAFDVEAPTTLPPCKGSYFGTENLKSLVLHFLQQYYAIYDSGDRQGLLDAYHDGACCSLSIPFIPQNPARSSLAEYFKDSRNVKKLKDPTLRFRLLKHTRLNVVAFLNELPKTQHDVNSFVVDISAQTSTLLCFSVNGVFKEVDGKSRDSLRAFTRTFIAVPASNSGLCIVNDELFVRNASSEEIQRAFAMPAPTP
chain 2: ASVDFKTYVDQACRAAEEFVNVYYTTMDKRRRLLSRLYMGTATLVWNGNAVSGQESLSEFFEMLPSSEFQISVVDCQPVHDEATPSQTTVLVVICGSVKFEGNKQRDFNQNFILTAQASPSNTVWKIASDCFRFQDWAS
notes: also called NXF1:NXT1; TAP:p15

Legend:
[1] = test system: NXF1ΔNΔUBA+3A;NXT1 (p15) (Homo sapiens;Homo sapiens); experiment: ITC
[2] = biological target: the molecule itself; experiment: crystal structure; crystals of the purified NXF1^ΔNΔUBA:NXT1 complex, 18°C, 9% PEG 6000, 1 M LiCl, 0.1 M Na citrate pH 5.1; P1, 3.4 Å, two copies of the complex in the asymmetric unit

Row | Molecule | binding signal (fold weaker than wild type) [1] | stoichiometry N [2]
1 | full-length CTE-RNA | 2.5 | –
2 | B1 | – | 2
